In US20170281809A1 (Novo Nordisk, published 2017):
Numbering of substitutions follows the chain as printed. In names and notes the source's numbering stands. Several values for one entry are separate records, joined by “and”; a condition that tells them apart may be missing. Equal entries are not always repeated.

B1: chimeric Z270 antibody (antibody, human IgG4, V domains shown)
VH: QVQLQQPGAELVRPGASVKLSCKASGYTFTSYWMNWVKQRPEQGLQWIGRIDPYDSETHYSQKFKDKAILTVDKSSSTAYMRLSSLTSEDSAVYYCARGGYDFDVGTLYWFFDVWGAGTTVTVS
VL: DIQMTQSPASLSASVGETVTITCRASENIYSYLAWYQQKQGKSPQFLVYNAKTLAEGVPSRFSGSGSGTQFSLKINSLQPEDFGSYYCQHHYGTPRTFGGGTKLEIK
B2: Z270VH alanine mutant R94A (antibody, name in Kabat numbering, V domains shown)
VH: B1 VH with R98A
VL: B1 VL
B3: humZ270VL1/VH1 (antibody, human IgG4, V domains shown)
VH: QVQLVQSGAEVKKPGASVKVSCKASGYTFTSYWMNWVRQAPGQGLEWMGRIDPYDSETHYAQKLQGRVTMTTDTSTSTAYMELRSLRSDDTAVYYCARGGYDFDVGTLYWFFDVWGQGTTVTVS
VL: DIQMTQSPSSLSASVGDRVTITCRASENIYSYLAWYQQKPGKAPKLLIYNAKTLAEGVPSRFSGSGSGTDFTLTISSLQPEDFATYYCQHHYGTPRTFGGGTKVEIK
notes: No back-mutations; also called hZ270VL1/VH1; huZ270 with a humZ270VH1 heavy chain
B4: wild-type Z270 produced in HEK293 cells (recZ270) (antibody, mouse IgG1, V domains shown)
VH: B1 VH
VL: B1 VL
notes: also called recombinant Z270

Tests used:
[1] = target: single-chain NKG2A-CD94-mFc construct (human) (UniProt Q13241); assay: SPR (Biacore T100); sc-NKG2A-CD94-mFc amine-coupled to CM5 chip, antibody 0.157-2.5 nM as analyte
[2] = target: single-chain NKG2A-CD94-mFc construct (human) (UniProt Q13241); assay: SPR (Biacore T100); sc-NKG2A-CD94-mFc on CM5 chip, mutant at 0.75 nM or 1.5 nM
[3] = target: T1, CD94/NKG2A on cells (Ba/F3-CD94/NKG2A; NKL cells) (human, UniProt Q13241 1-179); assay: flow cytometry on Ba/F3-CD94/NKG2A cells, APC-conjugated secondary antibody specific for human antibodies
T1 construct: whole, on cells
Method: The specificity and efficacy of humZ270VL1/VH1, and various humZ270VL1/VH1 variants with back-mutations in the variable light (VL) or variable heavy (VH) regions were tested for binding to CD94/NKG2A in flow-cytometry. For this, Ba/F3-CD94/NKG2A cells were incubated with humZ270-L46F (VL), humZ270-148V (VL), humZ270-L46F/148V (VL), humZ270-V5Q (VH), humZ270-M69L (VH), humZ270-T71V (VH), humZ270-T73K (VH), humZ270-T75S (VH), humZ270-V5Q/M69L/T71V/T73K/T75S (VH), humZ270-M69L/T71V/T73K/T75S (VH) or two different batches of humZ270VL1/VH1 without back-mutations (“DK” and “CHN”). For this purpose, Ba/F3-CD94/NKG2A or -C cells were incubated with various concentrations of the humZ270 variants in tissue-culture medium containing 2% FCS, for at least 30 minutes on ice. The cells were then washed, and incubated in similar medium with APC conjugated secondary antibodies specific for human antibodies, again for at least 30 minutes on ice. After two times washing with ice-cold PBS, the binding of secondary antibodies to cells was visualized using a BD Biosciences FACSarray.

[4] = target: T1, CD94/NKG2A on cells (Ba/F3-CD94/NKG2A; …); assay: flow cytometry on Ba/F3-CD94/NKG2A cells, no HLA-E tetramer pre-incubation, APC-conjugated secondary antibody
Method: To test whether humZ270VL1/VH1 prevents ligand (i.e. HLA-E) binding to CD94/NKG2A, we analyzed whether humZ270 could prevent the binding of HLA-E tetramers to CD94/NKG2A over-expressing Ba/F3 cells (Ba/F3-CD94/NKG2A). For this, Ba/F3-CD94/NKG2A were incubated with 1) various concentrations of humZ270 or 2) first incubated with a saturing concentration of HLA-E tetramers (4.7 μg/ml) and then incubated with various concentrations of humZ270. All incubations were performed in tissue-culture medium containing 2% FCS, on ice. Subsequently, cells were incubated with APC-conjugated secondary antibodies specific for mouse Ab's, and analyzed by flow cytometry using a BD Biosciences FACSarray.

[5] = target: T1, CD94/NKG2A on cells (Ba/F3-CD94/NKG2A; …); assay: flow cytometry on Ba/F3-CD94/NKG2A cells, APC-conjugated secondary antibody
Method: The strength and specificity of humZ270 binding to CD94/NKG2A was tested in flow-cytometry, by analyzing the binding of in HEK293 cells produced wild-type Z270 (recZ270), chimeric Z270 with human IgG4 (chimZ270) or humanized Z270 (humZ270VL1/VH1) to Ba/F3 cells stably over-expressing either CD94/NKG2A or CD94/NKG2C. For this purpose, Ba/F3-CD94/NKG2A and -C cells were incubated with various concentrations of Z270 variants in tissue-culture medium containing 2% FCS, for at least 30 minutes on ice. Subsequently cells were washed, and the cells incubated in similar medium with APC conjugated secondary Ab's, again for at least 30 minutes on ice. After two times washing with ice-cold PBS, the binding of mAb's to cells was visualized using a BD Biosciences FACSarray.

T1 sequence (chain, as listed by the source limits assumed, chain 1 of 2): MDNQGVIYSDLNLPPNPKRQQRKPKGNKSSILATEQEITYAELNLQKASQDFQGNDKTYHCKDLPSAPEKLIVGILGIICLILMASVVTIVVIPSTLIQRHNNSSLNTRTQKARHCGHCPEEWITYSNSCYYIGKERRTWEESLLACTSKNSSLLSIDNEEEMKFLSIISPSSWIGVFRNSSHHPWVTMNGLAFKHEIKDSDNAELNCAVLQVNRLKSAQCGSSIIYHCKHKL
T1 sequence (Q13241 whole entry, chain 2 of 2): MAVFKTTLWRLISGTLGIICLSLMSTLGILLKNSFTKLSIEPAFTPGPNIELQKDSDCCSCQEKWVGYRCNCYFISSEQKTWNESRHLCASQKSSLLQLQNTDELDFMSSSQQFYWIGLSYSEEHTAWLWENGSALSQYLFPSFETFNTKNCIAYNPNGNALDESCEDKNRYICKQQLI

Binder | Kd [1] [nM] | koff [1] [s⁻¹] | kon [1] [M⁻¹ s⁻¹] | relative binding (binding level in RU divided by that of chimZ270) [2] [%] | EC50 (read off the curve) [3] | EC50 (read off the curve) [4] [ng/mL] | EC50 (read off the curve) [5] [ng/mL]
B1 | 0.0498 | 0.000397 | 7.97e+06 | – | – | – | –
B2 | – | – | – | 20 | – | – | –
B3 | 0.0665 | 0.000498 | 7.49e+06 | – | ~10 ng/mL and ~8 ng/mL | ~30 | –
B4 | – | – | – | – | – | – | ~1
